The target of one test is HLA-A*30:01. Put plainly: IEDB peptide-MHC binding, purified MHC/competitive/radioactivity; filed as Kd, often an IC50 or EC50 that approximates it; ≥ and ≤ were set here for values at or beyond the usual limits of such assays.
For test [1], the target named is HLA-A*03:01. Described as above.
Test [2] has as its target HLA-A*31:01. Described as above.
The target in a further test is HLA-A*11:01. The description is as above.
Test [3] has as its target HLA-A*31:01. Put plainly: IEDB peptide-MHC binding, purified MHC/direct/fluorescence; filed as Kd, often an IC50 or EC50 that approximates it; ≥ and ≤ were set here for values at or beyond the usual limits of such assays.
Another test has as its target HLA-B*53:01. Description: IEDB peptide-MHC binding, purified MHC/competitive/radioactivity; filed as Kd, often an IC50 or EC50 that approximates it; ≥ and ≤ were set here for values at or beyond the usual limits of such assays.
The next test has as its target HLA-B*35:01. The test is described as above.
In another test the target is HLA-B*51:01. The test is described as above.
For the next test, the target named is HLA-A*30:02. The test is described as above.
The target of a further test is HLA-A*24:02. The description is as above.
The next test has as its target HLA-A*29:02. Described as above.
For another test, the target named is HLA-A*26:01. The test is described as above.
For a further test, the target named is HLA-A*23:01. The test is described as above.
The next test concerns the target HLA-A*01:01. The test is described as above.
Another test has as its target HLA-A*33:01. The test is described as above. The following applies: source organism: Mammarenavirus machupoense.
The next test concerns the target HLA-A*68:01. The test is described as above. The following applies: source organism: Mammarenavirus machupoense.
For a further test, the target named is HLA-A*32:01. The test is described as above.
In test [4] the target is HLA-A*03:01. Description: IEDB peptide-MHC binding, purified MHC/direct/fluorescence; filed as Kd, often an IC50 or EC50 that approximates it; ≥ and ≤ were set here for values at or beyond the usual limits of such assays.
[5] abbreviates: source organism: Dengue virus 3 Singapore/8120/1995.
Setting [6] is: source organism: Dengue virus 2 Jamaica/1409/1983.
[7] abbreviates: source organism: Dengue virus 3 Martinique/1243/1999.
[8] abbreviates: source organism: Dengue virus 4 Philippines/H241/1956.
[9] abbreviates: source organism: Dengue virus 1 Singapore/S275/1990.
Setting [10] is: source organism: Mammarenavirus machupoense.
The mark [11] stands for this setting: source organism: Mammarenavirus guanaritoense.
The mark [12] stands for this setting: source organism: SARS coronavirus Tor2.
The mark [13] stands for this setting: source organism: Mammarenavirus brazilense.
[14] abbreviates: source organism: Francisella tularensis subsp. tularensis FSC198.
Where [15] appears, read: source organism: Dengue virus 1 Brazil/97-11/1997.
Where [16] appears, read: source organism: Mammarenavirus juninense.

Data on 23 sequences can be found in the Immune Epitope Database (IEDB).

The term Kd denotes a measure of binding affinity in units of concentration.

A value given as a limit tells only on which side of the number the result lay.

For the sequence KALKINWYK, the Kd with HLA-A*30:01 (setting [5]) amounted to 0.36 µM; in the test with HLA-A*03:01 [1] (setting [5]) it was 0.0841 µM; with HLA-A*31:01 [2] (setting [5]) it was 0.00011 µM; in the test with HLA-A*11:01 (setting [5]) it was 0.0817 µM.
For KCYGVSATK, the dissociation constant Kd in the test with HLA-A*31:01 [3] (source organism: SARS-CoV1) was 3.52 µM.
On to LMKITAEWLW, for which, in the test with HLA-B*53:01 (setting [6]), the dissociation constant (Kd) amounted to 1.41 µM.
Consider LPETMETLLL, for which the Kd came out at 1.21 µM in the test with HLA-B*35:01 (setting [7]), 0.0243 µM with HLA-B*53:01 (setting [7]) and 1.17 µM with HLA-B*51:01 (setting [7]).
As to LPLPWAAGAD, the Kd in the test with HLA-B*35:01 (setting [8]) was 4.14 µM; in the test with HLA-B*51:01 (setting [8]), at least 22.9 µM.
On to LPVLLGSLGC, for which the dissociation constant Kd is 2.03 µM with HLA-B*35:01 (setting [9]), 0.199 µM with HLA-B*53:01 (setting [9]) and at least 20.1 µM in the test with HLA-B*51:01 (setting [9]).
As to LSSSEPHCA, the Kd was 2.35 µM with HLA-A*30:02 (setting [10]); at least 77.5 µM in the test with HLA-A*24:02 (setting [10]); at least 78.9 µM in the test with HLA-A*29:02 (setting [10]); at least 77.9 µM with HLA-A*26:01 (setting [10]); at least 60.9 µM in the test with HLA-A*23:01 (setting [10]); 4.19 µM in the test with HLA-A*01:01 (setting [10]).
On to LWMADVPLQW, for which the Kd with HLA-A*24:02 (setting [5]) is 0.0243 µM; in the test with HLA-A*23:01 (setting [5]), 0.0397 µM.
Turning to LWPFIRINNL, the values for the Kd in the test with HLA-A*24:02 (setting [11]), with HLA-A*29:02 (setting [11]) and with HLA-A*23:01 (setting [11]) were 0.453 µM, 1.64 µM and 0.117 µM, respectively.
As to LYLYALIYFL, the equilibrium dissociation constant (Kd) with HLA-A*30:02 (setting [12]) was 6.96 µM; in the test with HLA-A*24:02 (setting [12]), 0.299 µM; with HLA-A*29:02 (setting [12]), 3 µM; in the test with HLA-A*26:01 (setting [12]), 2.46 µM; with HLA-A*23:01 (setting [12]) it was 0.022 µM; with HLA-A*01:01 (setting [12]), 4.27 µM.
As for LYYPSARIVY, the equilibrium dissociation constant (Kd) was 0.0718 µM with HLA-A*30:02 (setting [12]); 2.02 µM with HLA-A*24:02 (setting [12]); 0.0146 µM with HLA-A*29:02 (setting [12]); 7.36 µM with HLA-A*26:01 (setting [12]); 1.91 µM with HLA-A*23:01 (setting [12]); at least 37.8 µM in the test with HLA-A*01:01 (setting [12]).
With MYLKLRSETL, the Kd with HLA-A*30:02 (setting [12]) was found to be 18.2 µM; in the test with HLA-A*24:02 (setting [12]), 0.164 µM; with HLA-A*29:02 (setting [12]), 17.7 µM; with HLA-A*26:01 (setting [12]) it was 7.59 µM; with HLA-A*23:01 (setting [12]) it was 0.0445 µM; with HLA-A*01:01 (setting [12]), 7.22 µM.
As for NYPYLFEEHL, the dissociation constant Kd in the test with HLA-A*24:02 (setting [13]) is 0.979 µM; in the test with HLA-A*29:02 (setting [13]), at least 71.4 µM; with HLA-A*23:01 (setting [13]), 0.824 µM.
As to PFGDSYIII, the equilibrium dissociation constant (Kd) with HLA-A*23:01 (setting [6]) is 3.96 µM.
Turning to QWNLVIGFLF, the Kd with HLA-A*30:02 (setting [12]) was at least 26.3 µM; with HLA-A*24:02 (setting [12]), 0.00564 µM; with HLA-A*29:02 (setting [12]), 0.0395 µM; in the test with HLA-A*26:01 (setting [12]), at least 69.7 µM; with HLA-A*23:01 (setting [12]) it was 0.00214 µM; in the test with HLA-A*01:01 (setting [12]) it was at least 30.6 µM.
For the sequence RTAPPSLYGR, the Kd with HLA-A*33:01 is 2.39 µM; with HLA-A*30:01 (setting [10]) it was 0.759 µM; with HLA-A*03:01 [1] (setting [10]), 0.0162 µM; with HLA-A*68:01, 0.0102 µM; in the test with HLA-A*31:01 [2] (setting [10]), 0.00159 µM; with HLA-A*11:01 (setting [10]) it was 0.00892 µM.
As to RVGLYGLLFY, the Kd with HLA-A*30:02 (setting [11]) was 0.0366 µM; with HLA-A*30:01 (setting [11]), 4.05 µM; with HLA-A*29:02 (setting [11]), 0.0484 µM; in the test with HLA-A*26:01 (setting [11]) it was at least 69.7 µM; with HLA-A*01:01 (setting [11]), 17.4 µM; with HLA-A*32:01 (setting [11]), 2.34 µM.
Turning to SFSSGWSPR, the Kd is at least 20 µM with HLA-A*03:01 [4] (setting [14]) and 0.0034 µM in the test with HLA-A*31:01 [3] (setting [14]).
For SWLITSGFR, the equilibrium dissociation constant (Kd) was at least 20 µM in the test with HLA-A*03:01 [4] (source organism: Cowpox virus) and 1.1 µM with HLA-A*31:01 [3] (source organism: Cowpox virus).
Consider SYKVASEGF, for which the Kd worked out at 0.209 µM with HLA-A*24:02 (setting [15]) and 0.626 µM in the test with HLA-A*23:01 (setting [15]).
Regarding TGFDWITDY, in the test with HLA-A*30:02 (setting [8]), the equilibrium dissociation constant (Kd) came out at 1.6 µM.
Take VAHSSLYGRY: the Kd in the test with HLA-A*30:02 (setting [16]) was 0.00586 µM; with HLA-A*30:01 (setting [16]), 8.96 µM; with HLA-A*29:02 (setting [16]) it was 0.349 µM; in the test with HLA-A*26:01 (setting [16]), 11.7 µM; in the test with HLA-A*01:01 (setting [16]) it was 5.8 µM; in the test with HLA-A*32:01 (setting [16]) it was at least 69.9 µM.
For YAQMWSLMY, the Kd with HLA-A*30:02 (setting [7]) turned out to be 0.0088 µM.
